Laboratory results from PMC7866087, “Evaluation of Computationally Designed Peptides against TWEAK, a Cytokine of the Tumour Necrosis Factor Ligand Family” (International Journal of Molecular Sciences, 2021).

System: BRV5 cells, Fn14 gene expression
Test: Fn14 gene expression with TWEAK, BRV5 (RT-PCR)
Format: cell-based, human
Settings: for Normalized level of expression of Fn14 gene: BRV5, TWEAK 25 ng/ml
Description: Figure 1 Characterization TWEAK-dependent/not dependent cells. (A) Representative images of Fn14 expression (pink) in BRV5, 435-P and HT29 cells labelled by immunofluorescence. The protein has similar expression in BRV5 and the positive control HT29 cells, and less expressed in 435-P. DAPI (blue) was used for nucleus identification. (B) RT-PCR analysis to quantify Fn14 gene expression of cells cultured in the presence (dark green) or absence (light green) of TWEAK (25 ng/mL) at 48 h. Up-regulation of Fn14 is observed only in HT29 and BRV5 cells. Bars and error bars represent the average and standard deviation as calculated from three replicates respectively. P values represented as: * - significant (Pvalue: 0.01 to 0.05) and **- very-significant (Pvalue: 0.001 to 0.01).
Since the transcriptional activation of Fn14 expression can be induced in cancer cells by the TWEAK-Fn14 interaction, either in a paracrine or autocrine manner, we investigated whether TWEAK transactivates Fn14 (TNFR2F12A) in BRV5 brain metastatic cells. We primed cells with TWEAK and analysed TNFR2F12A gene expression including in the analysis 435-Br1 cells, the first generation of brain metastatic cells BRV5.
Three different cell lines were used in this study: BRV5, MDA-MB 435 (435-P), and HT29. The BRV5 is a highly metastatic brain cell line, obtained in one of our laboratories by primary culture from a brain of a nude mouse inoculated with human 435-Br1 brain metastatic cells, as previously described and used as a model to test the peptides in cell cultures. […] The triple negative 435-P cell line is a useful human breast cancer model that expresses both epithelial and melanocytic markers, and was included as the parental cell from which 435-Br1 metastatic variant was initially originated (both cell lines kindly provided by Dr Fabra at IDIBELL Institute, Hospitalet de Llobregat, Spain). Finally, HT29 human colon carcinoma cells obtained from the European Type Culture Collection (ECACC 91072201) were used as a positive control of TWEAK dependent Fn14 over-expressing cells to evaluate TWEAK-Fn14 axis of brain metastatic variants.

B1: tumour necrosis factor-like weak inducer of apoptosis (protein, UniProt O43508 94-249, looked up)
Tumor necrosis factor ligand …: SAPKGRKTRARRAIAAHYEVHPRPGQDGAQAGVDGTVSGWEEARINSSSPLRYNRQIGEFIVTRAGLYYLYCQVHFDEGKAVYLKLDLLVDGVLALRCLEEFSATAASSLGPQLRLCQVSGLLALRPGSSLRIRTLPWAHLKAAPFLTYFGLFQVH
With B1 the “Normalized level of expression of Fn14 gene” value (“Normalized level” for short) (technical replicate 1) was 0.1340, the “Normalized level” value (technical replicate 2) was 0.1202 and the “Normalized level” value (technical replicate 3) was 0.1441. For the same molecule, the Fn14 transcriptional expression (TWEAK 25 ng/mL, 48 h, BRV5) was “significantly activated in BRV5 cells (p = 0.0031)”.
